Data reported in article PMC5483248, “The LacI family protein GlyR3 co-regulates the celC operon and manB in Clostridium thermocellum” (Biotechnology for Biofuels, 2017).
Values joined by “and” are separate entries in the source; they are usually repeats but may differ in a detail not shown here. Equal entries are not always repeated. Each block holds one molecule with its values, some of them ahead of it.

Assays:
GlyR3 [1] = biological target: T1, GlyR3 (Acetivibrio thermocellus, UniProt A3DJ78); assay: EMSA, release of GlyR3 from biotin-labelled celC operator DNA (ImageJ); format: binding; details: GlyR3 150 ng (387 nM); celC DNA 0.2 ng (0.156 nM); laminaribiose 70 μg (100 mM); effector, dissociates repressor from celC site
T1 construct: gene Cthe_2808; full gene cloned in pTXB1, expressed in E. coli T7 Express C2566, purified with the IMPACT (intein) system
T1 sequence (A3DJ78 1-345): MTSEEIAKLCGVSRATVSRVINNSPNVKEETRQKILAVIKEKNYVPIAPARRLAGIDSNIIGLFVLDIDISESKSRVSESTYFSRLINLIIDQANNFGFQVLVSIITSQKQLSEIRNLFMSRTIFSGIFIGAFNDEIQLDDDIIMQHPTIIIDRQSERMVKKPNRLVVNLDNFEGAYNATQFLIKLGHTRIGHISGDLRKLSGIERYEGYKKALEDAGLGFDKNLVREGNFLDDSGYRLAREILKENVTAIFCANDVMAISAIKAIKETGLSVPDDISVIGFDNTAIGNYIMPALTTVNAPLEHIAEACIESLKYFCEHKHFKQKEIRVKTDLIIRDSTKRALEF

[2] = biological target: T2, GlyR3 (Clostridium thermocellum) (UniProt Q9AL35); assay: EMSA; details: LightShift Chemiluminescent EMSA kit, TBE gel; 0.2 ng biotin-DNA (0.156-0.204 nM), GlyR3 150 ng (387 nM) unless titrated; binding buffer salt, pH and …
T2 sequence: T1 sequence (A3DJ78 1-345)

GlyR3 [3] = biological target: T3, GlyR3 (Clostridium thermocellum, UniProt Q9AL35 1-345); assay: EMSA; details: LightShift Chemiluminescent EMSA kit, TBE gel, 0.2 ng biotin-DNA (0.156-0.204 nM), GlyR3 150 ng (387 nM) unless titrated, binding buffer salt, pH and …
T3 sequence: T1 sequence (A3DJ78 1-345)

GlyR3 [4] = biological target: T3, GlyR3; assay: competition; 500 ng 18-mer reverses shift of manB probe; LightShift Chemiluminescent EMSA kit, TBE gel; 0.2 ng biotin-DNA (0.156-0.204 nM), GlyR3 150 ng (387 nM) unless titrated; binding buffer salt, pH and temperature not given; details: protein: recombinant; tags: expressed from pTXB1 (IMPACT intein system, NEB); chain copies: 2; label: unlabeled; blunt
GlyR3 [5] = biological target: T3, GlyR3; assay: competition; 500 ng 18-mer reverses shift of celC probe; LightShift Chemiluminescent EMSA kit, TBE gel; 0.2 ng biotin-DNA (0.156-0.204 nM), GlyR3 150 ng (387 nM) unless titrated; binding buffer salt, pH and temperature not given; details: protein: recombinant; tags: expressed from pTXB1 (IMPACT intein system, NEB); chain copies: 2; label: unlabeled; blunt
[6] = 387 nM GlyR3, 50 mM laminaribiose
[7] = 387 nM GlyR3, 100 mM laminaribiose

% celC DNA shifted at 100 mM laminaribiose (GlyR3 [1]): 67%
Molecule: OC[C@H]1O[C@@H](O[C@H]2[C@H](O)[C@@H](CO)OC(O)[C@@H]2O)[C@H](O)[C@@H](O)[C@@H]1O (stereo partly drawn) [laminaribiose]

Molecule: CCGAATAAAAACTGGACAGAGAAGAAGAAAACGTGATATAATTAAATTAGAATGAACGCGCGTACATTATTGAATAATCCAGTGTTAAATGGTTTCAGTTTACGATTTCAAATGTTTATATCCAATTTACATTTAAAAACATACAAAACATCAAAAGTATTTAATACCAATATTTAAAACACAATATTTCAGGAGGA (double strand) [celC EMSA fragment]
binding [2]: binds | binding signal [2]: 99 % shifted

Molecule: TCGGTGAATGTTGAGGTTGACAAGGAAGGACTTTATGAAATATTCATCTGCTATGTGCAGCCTTACGACAAAAACAAAAAAGTGCAGTATCTTAATGTAAACGGTGTCAATCAGGGAGAAATAAGCTTTCCGTTTACTCTTAAATGGAGAGAGATTTCAGCAGGA (double strand) [manB EMSA fragment]
binding [2]: binds more weakly | binding signal [2]: 18 % shifted (2×) and 19 % shifted

Molecule: TGAGCAAATCAATTGTAATATGAAGAAAAATATAGTAAGATATTAATAAAAGAATAAAATAATATATTGGTATAATATGTAAATCGGTTGCAGTAATGCTATTCCAATAAAAGATGAAAGATTTCCGTTAATTCATTGAAAGAAACGTTCTGCTGCA (double strand) [celT EMSA fragment]
binding [2]: no binding

Molecule: TGTTATCTTCGGTTAGCTCATCAAGGTAATCATAGAATATATTATAAAGAGTAACAAAGTAAATAAACTCAGGTGTATTTTCTTTATATAGAATTCTCATTTGCTCAAGAACTTTATCTTTAACATCCTGAACAGCAGTATCATCCTCCCA (double strand) [random control DNA fragment]
binding [2]: no binding

Molecule: celC EMSA fragment
binding signal (GlyR3 [3]; [6]): 82 % shifted | binding signal (GlyR3 [3]; [7]): 67 % shifted | binding signal (GlyR3 [3]; 387 nM GlyR3, no laminaribiose): 99 % shifted

Molecule: manB EMSA fragment
binding signal (GlyR3 [3]; [6]): 18 % shifted | binding signal (GlyR3 [3]; [7]): 19 % shifted | binding signal (GlyR3 [3]; 387 nM GlyR3, no laminaribiose): 18 % shifted

B1: manB 18-mer competitor (dsDNA)
DNA 1: AATGTAAACGGTGTCAAT
DNA 2: ATTGACACCGTTTACATT
binding result (GlyR3 [4]): binds

B2: celC 18-mer competitor (dsDNA)
DNA 1: AATGAACGCGCGTACATT
DNA 2: AATGTACGCGCGTTCATT
binding result (GlyR3 [5]): binds
